1 molecule from paper PMC3342691 (Nature structural & molecular biology, 2011) can be followed below.

This assay has as its target Xenopus tropicalis tubulin tyrosine ligase (residues 2–377) (Xenopus tropicalis). The assay can be described thus: AUC.

What is called Kd is the concentration at which binding is half-saturated. A higher Kd goes with lower affinity. In the case of VDSVEGEGEEEGEE [14-residue α–tubulin C-terminal peptide (VDSVEGEGEEEGEE)], the Kd was around 144 µM.
